Data taken from publication PMC12242769.

How the values were obtained:
Assay in all cases: EMSA
[1] = test system: TbLa RRM1Δ (Trypanosoma brucei); conditions: native tRNA modifications except queuosine (from TbTGT2Δ cells); 50 mM HEPES pH 7.5, 1 mM MgCl2, 5 mM KCl; on ice 30 min; ~0.6 nM tRNA, 10 µl; 6% native PAGE
[2] = test system: TbLa LaMΔ (Trypanosoma brucei); conditions: native tRNA modifications except queuosine (from TbTGT2Δ cells); 50 mM HEPES pH 7.5, 1 mM MgCl2, 5 mM KCl; on ice 30 min; ~0.6 nM tRNA, 10 µl; 6% native PAGE
[3] = test system: TbLa (wild type) (Trypanosoma brucei); conditions: 1 mM Mg2+; apparent Kd from Hill fit; native tRNA modifications except queuosine (from TbTGT2Δ cells); 50 mM HEPES pH 7.5, 1 mM MgCl2, 5 mM KCl; on ice 30 min; ~0.6 nM tRNA, 10 µl; 6% native PAGE

Substance: native mature tRNATyr lacking Q34
- Kd [1]: 446 nM
- Kd [2]: 855 nM
- Kd [3]: 216 nM
